# ± gives the standard error. For some assays here: This sample holds only a part of the variants without activity.
# B1: glmS ribozyme (parent)
# chain: AUAAAAGCGCCAGAACUACAGAAAUGUAGUUGACGAGGAGGAGGUUUAUCGAAUUUUCGGCGGAUGCCUCCAAA
# Experiments:
# Details in all cases: with glucosamine-6-phosphate
# [1] = variants of: B1; experiment: kcat; higher = faster cleavage; RNA array
# Method in brief: (§1)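 Barcoded ribozyme variants on sequenced MiSeq chips were transcribed in situ by E. coli RNA polymerase and followed at 37 °C through a hybridised Cy3 probe. Glucosamine-6-phosphate at 40 μM to 10 mM in HEPES/KCl/Mg(OAc)2 buffer was flowed in, and tiles were imaged over ~14 h. Signals were normalised to baseline and to non-cleaving reference variants, and per-tile medians were fit to one- or two-exponential decays to give kobs. Weighted Michaelis–Menten fits across concentrations gave kcat and KM.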
# [2] = variants of: B1; experiment: KM; higher = weaker cofactor use; RNA array
# Method in brief: as §1
# [3] = variants of: B1; experiment: self-cleavage kobs at 10000 uM GlcN6P; higher = faster cleavage; RNA array
# Method in brief: as §1
# [4] = variants of: B1; experiment: self-cleavage kobs at 640 uM GlcN6P; higher = faster cleavage; RNA array
# Method in brief: as §1
# [5] = variants of: B1; experiment: self-cleavage kobs at 2500 uM GlcN6P; higher = faster cleavage; RNA array
# Method in brief: as §1
# [6] = variants of: B1; experiment: self-cleavage kobs at 160 uM GlcN6P; higher = faster cleavage; RNA array
# Method in brief: as §1
# [7] = variants of: B1; experiment: self-cleavage kobs at 40 uM GlcN6P; higher = faster cleavage; RNA array
# Method in brief: as §1
Variant,kcat [1] [s⁻¹],KM [2] [µM],self-cleavage kobs at 10000 uM GlcN6P [3] [s⁻¹],self-cleavage kobs at 640 uM GlcN6P [4] [s⁻¹],self-cleavage kobs at 2500 uM GlcN6P [5] [s⁻¹],self-cleavage kobs at 160 uM GlcN6P [6] [s⁻¹],self-cleavage kobs at 40 uM GlcN6P [7] [s⁻¹]
AUAAAAGCGCCAGAACUACAGAAAUGUAGUUGACGAGGAGGAUGUUUAUCGAACUUUCGGCGGAUGCCUCCAAA [G43U U54C],6.24e-05 ± 1.8e-06,7100 ± 410,3.65e-05 ± 1.6e-05,–,–,–,–
AUAAAAGCGCCAGAACUACAGAAAUGUAGUUGACGAGGAGGAGGUUUGUCGAAAUUUCGGCGGAUGCCUCCAAA [A48G U54A],0.000153 ± 2.2e-05,1650 ± 590,0.000123 ± 1.8e-05,3.77e-05 ± 9.3e-06,0.000115 ± 1.8e-05,–,–
AUAAAAGCGCAAGAACUACAGAAAUGUAGUUGACGAGGAGGAGGUUAAUCGAAUUUUCGGCGGAUGCCUCCAAA [C11A U47A],8.3e-05 ± 1.6e-05,–,6.56e-05 ± 1.8e-05,–,5.35e-05 ± 2.1e-05,–,–
AUAAAAGCGCCAGAACUACAGAAAUGUAGUUGACGAGUAGGAGGUUUAUCGAAUUUUCCGCGGAUGCCGCCAAA [G38U G59C U69G],4.16e-05 ± 1.3e-05,–,–,–,–,–,–
AUAAAAGCGCCAGAACUACAGAAAUGUAGUUGACGAGGAGGAGGUUUAUCGCAUUUGCGGCGGAUGCCUCCAAA [A52C U57G],9.64e-05 ± 1.4e-05,2300 ± 960,7.59e-05 ± 1.6e-05,–,5.77e-05 ± 1.5e-05,< 1e-05,–
AUAAAAGCGCUAGAGCUACAGAAAUGUAGUUGACGAGGAGGAGGUUUAUCGAAUUUUCGGCGGAUGCCUCCAAA [C11U A15G],0.00211 ± 0.00043,1010 ± 320,0.0023 ± 0.00037,0.000746 ± 8.9e-05,0.00141 ± 0.00022,0.000249 ± 4.3e-05,0.000103 ± 1.4e-05
AUAAAGGCGCCAGAACUACAGAAAUGUAGUUGACGAGGAGGAGGUUUAUCGAAUUGUCGGCGGAUGCCUCCAAA [A6G U56G],0.000188 ± 3.3e-05,1150 ± 540,0.000191 ± 2.3e-05,7.97e-05 ± 1.2e-05,0.000107 ± 1.5e-05,–,–
AUAAAAGCGCCAGAACUACAGAAAUGUAGUUGACGAGGAUGAGGUUUAUCGAAUUUUCGGCGGACGCCUCCAAA [G40U U65C],6.53e-05 ± 8.5e-06,–,5.76e-05 ± 1.1e-05,–,6.94e-05 ± 1.5e-05,–,–
AUAAAAGCGCCAGAACUACAGAAAUGUAGUUCACGAGGAGGAGGUUUAUUGAAUUUUCGGCGGAUGCCUCCAAA [G32C C50U],< 1e-05,–,< 1e-05,< 1e-05,–,–,–
AUAAAAGCGCCAGAACUACAGAAAUGUAGUUGACGAGGAGGAGGUUUAUUGAAUUUUCGGCGGAUGCCACCAAA [C50U U69A],2.06e-05 ± 3.7e-06,–,–,–,–,–,–
AUAAAAGCGUCAGAACUACAGAAAUGUAGUUGACGAGGAGGAGGUUUAUCGAAUUUUCGGCGGAUGCCUACAAA [C10U C70A],2.4e-05 ± 6e-06,–,–,–,3.1e-05 ± 1.5e-05,–,–
AUAAAAGCGCCAGAACUACAGAAAUGUAGUUGACGAGGAGGAGGUUUAUCGAAUUCUCGGCGGAGGCCUCCAAA [U56C U65G],0.000503 ± 9.7e-05,–,0.00041 ± 8.6e-05,–,0.000206 ± 7.7e-05,–,–

# — the supplement of paper PMC7125110
